The text below walks through data of patent US20170306037A1 (Novartis, published 2017).

Assay [1] has as its target T1, Recombinant human GITR and human Fc fusion protein (hGITR-hFc) (human, UniProt Q9Y5U5 26-162, limits assumed, biotinylated in the ForteBio Octet assays (sites not given)).
T1 construct: also called biotinylated hGITR-hFc; not shown: human Fc
T1 sequence: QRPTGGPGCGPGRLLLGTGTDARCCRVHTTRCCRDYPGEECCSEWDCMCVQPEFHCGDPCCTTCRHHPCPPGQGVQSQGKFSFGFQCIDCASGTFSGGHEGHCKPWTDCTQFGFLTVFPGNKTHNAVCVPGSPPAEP
The experiment in a line: ForteBio Octet QK, streptavidin biosensors coated with biotinylated hGITR-hFc. The source says:
Human germline residues incorporated into the optimized reference MAB1opFab in FR1 and FR3 are those specified by the PCR primers used to amplify the human V-segment repertoire and thus are present in all members of the Humaneered® Antibody V-region libraries. The optimized reference Fab is constructed to assess whether or not any of the changes to human germline alter the properties of Fab binding.

For assay [2], the target named is T2, human GITR extracellular domain (hGITR ECD) (human, UniProt Q9Y5U5 26-162).
T2 construct: also called human GITR ECD
T2 sequence: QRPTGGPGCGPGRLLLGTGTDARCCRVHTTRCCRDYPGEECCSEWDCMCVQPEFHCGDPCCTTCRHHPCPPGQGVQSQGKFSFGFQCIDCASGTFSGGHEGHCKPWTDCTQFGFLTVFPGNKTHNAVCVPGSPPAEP
The experiment in a line: ELISA on coated GITR ECD. As to the method:
(§1) The plate was blocked with a solution of 1% BSA in PBS for one hour at room temperature and then rinsed three times with PBST. The MAB was then diluted to 0.5 μg/mL or 1 μg/mL in PBS and 20 μL was added to each well. The plate was incubated for 1 hour at room temperature and then washed three times with PBST. […] The plate was incubated for 1 hour at room temperature, and then washed six times with PBST. 25 μL of SureBlue TMB (KPL 52-00-02) substrate was added to each well and the plate was incubated for about 10 min at room temperature.
On the technique in general: An ELISA detects its analyte on a solid surface through an enzyme-linked reagent.

Assay [3] deals with T3, mouse GITR extracellular domain (mouse, UniProt O35714 20-153).
T3 construct: extracellular domain; also called murine GITR; rodent GITR
T3 sequence (looked up): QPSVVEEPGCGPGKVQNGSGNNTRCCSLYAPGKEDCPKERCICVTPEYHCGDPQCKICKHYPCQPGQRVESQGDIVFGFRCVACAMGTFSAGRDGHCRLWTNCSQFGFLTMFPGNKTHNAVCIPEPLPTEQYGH
Nature of the assay: ELISA on coated GITR ECD. How it is done:
as §1

Assay [4] concerns the target T4, human GITR expressed on cells (human, UniProt Q9Y5U5 27-241).
T4 sequence: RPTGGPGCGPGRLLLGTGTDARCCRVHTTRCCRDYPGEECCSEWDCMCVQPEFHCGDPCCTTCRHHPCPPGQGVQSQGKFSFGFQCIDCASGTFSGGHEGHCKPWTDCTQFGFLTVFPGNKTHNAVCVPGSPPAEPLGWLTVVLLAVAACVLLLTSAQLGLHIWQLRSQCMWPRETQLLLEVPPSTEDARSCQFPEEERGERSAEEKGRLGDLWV
Nature of the assay: cell-based or functional assay.

For assay [5], the target named is T4, human GITR expressed on cells. The experiment in a line: FACS competition on hGITR stable HEK293 cells: ligand titrated first, then 4 nM MAB7 as competitor, PE anti-human detection. As to the method:
The ability of MAB to block ligand binding was assessed using HEK293 NFκB reporter parental cells and hGITR stable cells were used in competition binding assays and FACS analysis. Briefly, harvested cells were plated 1×10⁶ cells per mL, 100 μL per well to a 96 well round bottom FACS plate (Corning), then resuspended in 200 μL of cold FACS buffer (1×PBS+1% FBS-HI+0.1% sodium azide) per well. […] Plates were incubated for 1 hour on ice protected from light, cells washed, then prepared 4 nM isotype control or MAB solutions were prepared and added to appropriate wells at 100 μL per well and plates were incubated for 1 hour on ice protected from light, cells washed, then PE-conjugated goat-anti-human detection antibody (Jackson ImmunoResearch) prepared at 1:100 dilution in FACS buffer was added at 100 μL per well and plates were incubated for 30 minutes on ice protected from light. Cells were washed in FACS buffer then cells were fixed with 100 μL per well of BD CytoFix (BD Biosciences) and incubated for further 15 minutes on ice protected from light.

In assay [6] the target is T1, Recombinant human GITR and human Fc …. Nature of the assay: ForteBio Octet, Fab on human GITR (biotinylated hGITR-hFc sensors per paragraph 356); experiment b.
Assay [7] addresses T5, human GITR (hGITR), form not stated (human, UniProt Q9Y5U5 26-162, limits assumed).
T5 construct: the construct is not described
T5 sequence: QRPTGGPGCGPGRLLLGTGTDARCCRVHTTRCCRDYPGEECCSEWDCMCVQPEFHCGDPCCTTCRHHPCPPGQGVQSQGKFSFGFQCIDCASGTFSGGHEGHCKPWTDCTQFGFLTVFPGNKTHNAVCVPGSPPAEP
Nature of the assay: Biacore (SPR), IgG.

Assay [8] concerns the target cyno GITR (cGITR), form not stated (cynomolgus monkey). The experiment in a line: Biacore (SPR), IgG. A general note: In SPR one partner is held on a chip, and binding of the other changes the refractive index at the surface.
Assay [9] concerns the target T1, Recombinant human GITR and human Fc …. The experiment in a line: ForteBio Octet, Fab on human GITR (biotinylated hGITR-hFc sensors per paragraph 356); experiment a.
Assay [10] has the same target. Nature of the assay: ForteBio Octet, Fab on human GITR (biotinylated hGITR-hFc sensors per paragraph 356); experiment c. For orientation: Biolayer interferometry detects binding as a change in optical thickness at a sensor tip.

B1: MAB1rFab (reference Fab of MAB1) (Fab, V domains shown)
VH: QVQLKESGPGLVAPSQSLSITCTVSGFSLRSYGVDWVRQPPGKGLEWLGVIWGGGGTNYNSALMAKLSISKDKSKSQVFLKMNSLQTDDTAMYYCAKHAYGHDGGFAMDYWGQGTSVTVSS
VL: EIVMTQSPKSMSMSVGERVTLSCKASENVDTFVSWYQQKPDHSPKLLIYGASNRYTGVPDRFTGSGSATDFTLTISSVQAEDLADYHCGQSYSYPFTFGSGTKLEIK
For B1, in assay [1], the binding result is “binds”.

B2: MAB1 (murine monoclonal GITR agonist antibody) (antibody, V domains shown)
VH: QVQLKESGPGLVAPSQSLSITCTVSGFSLRSYGVDWVRQPPGKGLEWLGVIWGGGGTNYNSALMAKLSISKDKSKSQVFLKMNSLQTDDTAMYYCAKHAYGHDGGFAMDYWGQGTSVTVSS
VL: NIVMTQSPKSMSMSVGERVTLSCKASENVDTFVSWYQQKPDHSPKLLIYGASNRYTGVPDRFTGSGSATDFTLTISSVQAEDLADYHCGQSYSYPFTFGSGTKLEIK
notes: Mouse hybridoma antibody; also called parental mouse antibody MAB1; MAB1 parental Ab
For B2, the values for the binding result in assay [2] and in assay [3] were “binds” and “no binding”, respectively.

B3: recombinant human GITR ligand (GITR-L) (ligand, UniProt Q9UNG2 52-177, looked up)
chain: ETAKEPCMAKFGPLPSKWQMASSEPPCVNKVSDWKLEILQNGLYLIYGQVAPNANYNDVAPFEVRLYKNKDMIQTLTNKSKIQNVGGTYELHVGDTIDLIFNSEHQVLKNNTYWGIILLANPQFIS
Consider B3, for which the “EC50, NFκB-luciferase reporter in 293 cells overexpressing human GITR” value in [4] was approximately 65 nM. Also, the “IC50 (read off the curve)” value in assay [5] was ~0.2 molar ratio of Human GITR Ligand to MAB7 (MAB7 at 4 nM).

B4: MAB6 (IgG1 kappa) (antibody, V domains shown)
VH: EVQLVESGGGLVQSGGSLRLSCAASGFSLSSYGVDWVRQAPGKGLEWLGVIWGGGGTYYTSSLMARFTISRDNSKNTLYLQMNSLRAEDTAVYYCAKHAYGHDGGFAMDYWGQGTLVTVSS
VL: EIVMTQSPATLSVSPGERATLSCRASESVSSNVAWYQQRPGQAPRLLIYGASNRATGIPARFSGSGSGTDFTLTISRLEPEDFAVYYCGQSYSYPFTFGQGTKLEIKR
Consider B4, for which the binding result in [3] was “no binding (tested: 0.5 µg/mL or 1 µg/mL)”.

B5: MAB5 Fab (human full-chain Fab) (Fab, V domains shown)
VH: EVQLVESGGGLVQSGGSLRLSCAASGFSLSSYGVDWVRQAPGKGLEWLGVIWGGGGTYYTSSLMGRFTISRDNSKNTLYLQMNSLRAEDTAVYYCAKHAYGHDGGFAMDYWGQGTLVTVSS
VL: EIVMTQSPATLSVSPGERATLSCRASESVSSNVAWYQQRPGQAPRLLIYGASNRATGIPARFSGSGSGTDFTLTISRLEPEDFAVYYCGQSYSYPFTFGQGTKLEIK
notes: human kappa constant; also called MAB5(b)
Usually Kd stands for the equilibrium constant for the complex coming apart. As for B5, in [6], the Kd is 3.74 nM.

B6: MAB7 (IgG1 kappa) (antibody, V domains shown)
VH: EVQLVESGGGLVQSGGSLRLSCAASGFSLSSYGVDWVRQAPGKGLEWVGVIWGGGGTYYASSLMGRFTISRDNSKNTLYLQMNSLRAEDTAVYYCARHAYGHDGGFAMDYWGQGTLVTVSS
VL: EIVMTQSPATLSVSPGERATLSCRASESVSSNVAWYQQRPGQAPRLLIYGASNRATGIPARFSGSGSGTDFTLTISRLEPEDFAVYYCGQSYSYPFTFGQGTKLEIKR
notes: MAB4 with the glycation site KH changed to RH
B6: the Kd in [7] is 4.29 nM; in assay [8], 3.67 nM. Also, the binding result in [3] was “no binding (tested: not on the sheet; paragraph 336: 0.5 or 1 µg/mL)”.

B7: MAB3 Fab (human full-chain Fab) (Fab, V domains shown)
VH: QVQLVESGGGLVQPGGSLRLSCAASGFSLSSYGVDWVRQAPGKGLEWLGVIWGGGGTYYTASLMGRFTISRDNSKNTLYLQMNSLRAEDTAVYYCAKHAYGHDGGFAMDYWGQGTLVTVSS
VL: EIVMTQSPATLSVSPGERATLSCRASQSVSSNLAWYQQKPGQAPRLLIYGASNRATGIPDRFSGSGSGTDFTLTISRLEPEDFAVYYCGQSYSYPFTFGQGTKLEIK
notes: human kappa constant; also called MAB3(a)
For the molecule B7, the Kd in assay [9] turned out to be 2.98 nM.

B8: MAB6 Fab (human full-chain Fab) (Fab, V domains shown)
VH: EVQLVESGGGLVQSGGSLRLSCAASGFSLSSYGVDWVRQAPGKGLEWLGVIWGGGGTYYTSSLMARFTISRDNSKNTLYLQMNSLRAEDTAVYYCAKHAYGHDGGFAMDYWGQGTLVTVSS
VL: EIVMTQSPATLSVSPGERATLSCRASESVSSNVAWYQQRPGQAPRLLIYGASNRATGIPARFSGSGSGTDFTLTISRLEPEDFAVYYCGQSYSYPFTFGQGTKLEIK
notes: human kappa constant; also called MAB6(c)
For B8, in [10], the Kd was 5.94 nM.

B9: MAB2 Fab (human full-chain Fab) (Fab, V domains shown)
VH: QVQLVESGGGLVQPGGSLRLSCAASGFSLSSYGVDWVRQAPGKGLEWVGVIWGGGGTYYASSVMARFTISRDNSKNTLYLQMNSLRAEDTAVYYCAKHAYGHDGGFAMDYWGQGTLVTVSS
VL: EIVMTQSPATLSVSPGERATLSCRASESVSSNVAWYQQRPGQAPRLLIYGASNRATGIPARFSGSGSGTDFTLTISRLEPEDFAVYYCGQSYSYPFTFGQGTKLEIK
notes: human kappa constant; purified on Ni-NTA; also called MAB2(a)
Turning to B9, in [9], the Kd was 6.84 nM.

B10: MAB4 Fab (human full-chain Fab) (Fab, V domains shown)
VH: EVQLVESGGGLVQSGGSLRLSCAASGFSLSSYGVDWVRQAPGKGLEWVGVIWGGGGTYYASSLMGRFTISRDNSKNTLYLQMNSLRAEDTAVYYCAKHAYGHDGGFAMDYWGQGTLVTVSS
VL: EIVMTQSPATLSVSPGERATLSCRASESVSSNVAWYQQRPGQAPRLLIYGASNRATGIPARFSGSGSGTDFTLTISRLEPEDFAVYYCGQSYSYPFTFGQGTKLEIK
notes: human kappa constant; also called MAB4(b)
Turning to B10, in assay [6], the Kd was found to be 2.43 nM.

B11: MAB8 (IgG1 kappa) (antibody, V domains shown)
VH: EVQLVESGGGLVQSGGSLRLSCAASGFSLSSYGVDWVRQAPGKGLEWVGVIWGGGGTYYASSLMGRFTISRDNSKNTLYLQMNSLRAEDTAVYYCARNAYGHDGGFAMDYWGQGTLVTVSS
VL: EIVMTQSPATLSVSPGERATLSCRASESVSSNVAWYQQRPGQAPRLLIYGASNRATGIPARFSGSGSGTDFTLTISRLEPEDFAVYYCGQSYSYPFTFGQGTKLEIKR
notes: MAB4 with the glycation site KH changed to RN
In the case of B11, the binding result was “binds” in [2] and “no binding (tested: 0.5 µg/mL or 1 µg/mL)” in [3].
